Experimental data taken from publication PMC10405849, “Soluble CD93 lectin-like domain sequesters HMGB1 to ameliorate inflammatory diseases” (Theranostics, 2023).

Molecular target: T1, soluble recombinant human CD93 ectodomain protein rCD93D123 (Thr22-Lys580) (human, UniProt Q9NPY3 22-580)
T1 construct: CD93, human, ectodomain D1 (lectin-like domain) + D2 (five EGF-like repeats) + D3 (mucin-like domain), residues Thr22-Lys580; also called soluble rCD93; source: HEK293 cell protein expression system, purified (nickel-chelating Sepharose column)
T1 sequence (looked up): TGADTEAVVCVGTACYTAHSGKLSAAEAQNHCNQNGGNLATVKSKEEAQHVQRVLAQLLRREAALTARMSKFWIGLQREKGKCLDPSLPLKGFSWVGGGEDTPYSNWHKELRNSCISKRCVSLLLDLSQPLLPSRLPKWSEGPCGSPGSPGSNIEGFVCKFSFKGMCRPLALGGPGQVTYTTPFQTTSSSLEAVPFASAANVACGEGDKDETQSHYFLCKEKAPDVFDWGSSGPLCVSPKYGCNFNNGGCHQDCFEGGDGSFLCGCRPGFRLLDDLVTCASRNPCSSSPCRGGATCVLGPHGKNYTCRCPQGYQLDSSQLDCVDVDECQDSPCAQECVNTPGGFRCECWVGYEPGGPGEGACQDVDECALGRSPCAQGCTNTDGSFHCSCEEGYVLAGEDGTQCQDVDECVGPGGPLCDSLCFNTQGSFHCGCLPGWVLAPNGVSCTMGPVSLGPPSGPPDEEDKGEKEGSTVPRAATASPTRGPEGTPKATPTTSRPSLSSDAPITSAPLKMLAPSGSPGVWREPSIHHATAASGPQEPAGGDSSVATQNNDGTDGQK
Test: co-IP; rCD93D123 (5 nM) and HMGB1 (5 nM) incubated 1 hour at 37 °C in 50 mM Tris-HCl, 100 mM NaCl, 0.25% Triton X-100, 1 mM MgCl2, 2 mM EGTA; precipitated with anti-HMGB1 antibody on protein A agarose overnight at 4 °C; blot with anti-c-Myc antibody
Details: both partners purified

B1: recombinant human high-mobility group box 1 (HMGB1) protein (natural protein, UniProt P09429 1-215, looked up)
chain: MGKGDPKKPRGKMSSYAFFVQTCREEHKKKHPDASVNFSEFSKKCSERWKTMSAKEKGKFEDMAKADKARYEREMKTYIPPKGETKKKFKDPNAPKRPPSAFFLFCSEYRPKIKGEHPGLSIGDVAKKLGEMWNNTAADDKQPYEKKAAKLKEKYEKDIAAYRAKGKPDAAKKGVVKAEKSKKKKEEEEDEEDEEDEEEEEDEEDEDEEEDDDDE
notes: High-mobility group box 1 protein, human, recombinant; No catalogue number is printed; source: bought: R&D Systems
  binding result: binds
